From patent US20130011427A1 (priority 2009, published 2013) come the findings set out here.

The target in the first assay is HLA-A2.1 (HHD monochain) (human; murine). As to the kind of experiment: cell-based or functional assay.
As to WNV E 68-85 peptide, the IFN-γ ELISpot (SFC/10^6) was found to be 372 SFC/10^6.

For WNV E 450-467 peptide, the IFN-γ ELISpot (SFC/10^6) came to 205 SFC/10^6.

Take WNV NS1 228-245 peptide: the IFN-γ ELISpot (SFC/10^6) was 84 SFC/10^6.

Consider WNV NS1 236-251 peptide, for which the IFN-γ ELISpot (SFC/10^6) came to 78 SFC/10^6.

Take WNV NS2a 160-177 peptide: the IFN-γ ELISpot (SFC/10^6) is 63 SFC/10^6.

In the case of WNV NS2b 115-131 peptide, the IFN-γ ELISpot (SFC/10^6) worked out at 108 SFC/10^6.

In turn, WNV NS3 70-87 peptide returned an IFN-γ ELISpot (SFC/10^6) of 174 SFC/10^6.

WNV NS3 78-95 peptide yielded an IFN-γ ELISpot (SFC/10^6) of 150 SFC/10^6.

WNV NS3 85-100 peptide had an IFN-γ ELISpot (SFC/10^6) of 72 SFC/10^6.

Take WNV NS3 91-107 peptide: the IFN-γ ELISpot (SFC/10^6) was determined as 156 SFC/10^6.

WNV NS3 98-115 peptide: the IFN-γ ELISpot (SFC/10^6) was found to be 145 SFC/10^6.

Take WNV NS3 138-155 peptide: the IFN-γ ELISpot (SFC/10^6) came out at 159 SFC/10^6.

WNV NS3 146-162 peptide came in with an IFN-γ ELISpot (SFC/10^6) of 58 SFC/10^6.

With WNV NS3 161-177 peptide, the IFN-γ ELISpot (SFC/10^6) was determined as 56 SFC/10^6.

Consider WNV NS3 183-200 peptide, for which the IFN-γ ELISpot (SFC/10^6) is 62 SFC/10^6.

WNV NS3 206-223 peptide registered an IFN-γ ELISpot (SFC/10^6) of 108 SFC/10^6.

Regarding WNV NS3 221-237 peptide, the IFN-γ ELISpot (SFC/10^6) turned out to be 26 SFC/10^6.

Regarding WNV NS3 241-258 peptide, the IFN-γ ELISpot (SFC/10^6) was 127 SFC/10^6.

Turning to WNV NS3 249-266 peptide, the IFN-γ ELISpot (SFC/10^6) was 79 SFC/10^6.

Regarding WNV NS3 265-282 peptide, the IFN-γ ELISpot (SFC/10^6) stood at 150 SFC/10^6.

Consider WNV NS3 304-321 peptide, for which the IFN-γ ELISpot (SFC/10^6) stood at 94 SFC/10^6.

Consider WNV NS3 317-333 peptide, for which the IFN-γ ELISpot (SFC/10^6) was found to be 151 SFC/10^6.

Regarding WNV NS3 324-340 peptide, the IFN-γ ELISpot (SFC/10^6) was found to be 117 SFC/10^6.

In turn, WNV NS3 336-352 peptide yielded an IFN-γ ELISpot (SFC/10^6) of 167 SFC/10^6.

In turn, WNV NS3 343-360 peptide came in with an IFN-γ ELISpot (SFC/10^6) of 55 SFC/10^6.

For the substance WNV NS3 359-376 peptide, the IFN-γ ELISpot (SFC/10^6) turned out to be 75 SFC/10^6.

In turn, WNV NS3 413-430 peptide had an IFN-γ ELISpot (SFC/10^6) of 130 SFC/10^6.

WNV NS3 530-547 peptide came in with an IFN-γ ELISpot (SFC/10^6) of 127 SFC/10^6.

WNV NS5 448-463 peptide gave an IFN-γ ELISpot (SFC/10^6) of 26 SFC/10^6.

A further assay has as its target HLA-DR2 (chimeric HLA-DRA1*0101/DRB1*1501 with I-E domains) (human; murine) (UniProt Q8BHN5). Briefly: cell-based or functional assay.
UniProt Q8BHN5, sequence (Q8BHN5 whole entry, stated change not applied): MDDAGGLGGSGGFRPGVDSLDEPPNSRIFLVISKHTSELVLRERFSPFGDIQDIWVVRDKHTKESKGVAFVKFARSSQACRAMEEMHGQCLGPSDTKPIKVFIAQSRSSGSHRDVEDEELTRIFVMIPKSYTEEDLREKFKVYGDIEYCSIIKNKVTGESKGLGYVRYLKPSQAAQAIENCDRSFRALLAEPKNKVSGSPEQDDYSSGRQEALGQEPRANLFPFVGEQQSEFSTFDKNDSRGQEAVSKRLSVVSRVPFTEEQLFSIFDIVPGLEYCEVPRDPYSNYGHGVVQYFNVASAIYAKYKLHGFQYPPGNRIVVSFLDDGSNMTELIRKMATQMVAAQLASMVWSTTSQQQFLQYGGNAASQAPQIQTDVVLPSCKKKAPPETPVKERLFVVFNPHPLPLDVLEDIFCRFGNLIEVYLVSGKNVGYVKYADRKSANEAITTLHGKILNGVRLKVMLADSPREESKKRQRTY
In turn, WNV E 450-467 peptide gave an IFN-γ ELISpot (SFC/10^6) of 261 SFC/10^6.

Turning to WNV E 458-474 peptide, the IFN-γ ELISpot (SFC/10^6) turned out to be 51 SFC/10^6.

With WNV NS1 161-178 peptide, the IFN-γ ELISpot (SFC/10^6) came to 134 SFC/10^6.

Regarding WNV NS2a 6-23 peptide, the IFN-γ ELISpot (SFC/10^6) was 563 SFC/10^6.

For WNV NS2a 52-66 peptide, the IFN-γ ELISpot (SFC/10^6) was determined as 516 SFC/10^6.

WNV NS2a 80-97 peptide gave an IFN-γ ELISpot (SFC/10^6) of 289 SFC/10^6.

For the substance WNV NS2a 128-145 peptide, the IFN-γ ELISpot (SFC/10^6) came out at 384 SFC/10^6.

WNV NS2a 136-154 peptide displayed an IFN-γ ELISpot (SFC/10^6) of 98 SFC/10^6.

Take WNV NS2a 211-229 peptide: the IFN-γ ELISpot (SFC/10^6) is 74 SFC/10^6.

WNV NS2b 39-56 peptide returned an IFN-γ ELISpot (SFC/10^6) of 47 SFC/10^6.

WNV NS2b 59-75 peptide: the IFN-γ ELISpot (SFC/10^6) came to 59 SFC/10^6.

Substance WNV NS3 22-38 peptide gave an IFN-γ ELISpot (SFC/10^6) of 155 SFC/10^6.

As for WNV NS3 161-177 peptide, the IFN-γ ELISpot (SFC/10^6) was found to be 72 SFC/10^6.

Consider WNV NS3 176-192 peptide, for which the IFN-γ ELISpot (SFC/10^6) was 59 SFC/10^6.

WNV NS3 183-200 peptide came in with an IFN-γ ELISpot (SFC/10^6) of 55 SFC/10^6.

As for WNV NS3 199-216 peptide, the IFN-γ ELISpot (SFC/10^6) was found to be 52 SFC/10^6.

WNV NS3 206-223 peptide yielded an IFN-γ ELISpot (SFC/10^6) of 323 SFC/10^6.

The substance WNV NS3 214-230 peptide returned an IFN-γ ELISpot (SFC/10^6) of 146 SFC/10^6.

As for WNV NS3 249-266 peptide, the IFN-γ ELISpot (SFC/10^6) came to 139 SFC/10^6.

WNV NS3 265-282 peptide came in with an IFN-γ ELISpot (SFC/10^6) of 169 SFC/10^6.

For WNV NS3 455-469 peptide, the IFN-γ ELISpot (SFC/10^6) turned out to be 200 SFC/10^6.

The substance WNV NS3 460-475 peptide came in with an IFN-γ ELISpot (SFC/10^6) of 123 SFC/10^6.

On to WNV NS3 588-605 peptide, for which the IFN-γ ELISpot (SFC/10^6) turned out to be 42 SFC/10^6.

Substance WNV NS4b 30-47 peptide yielded an IFN-γ ELISpot (SFC/10^6) of 89 SFC/10^6.

Regarding WNV NS4b 233-250 peptide, the IFN-γ ELISpot (SFC/10^6) was 62 SFC/10^6.

Consider WNV NS5 181-198 peptide, for which the IFN-γ ELISpot (SFC/10^6) was 122 SFC/10^6.

In turn, WNV NS5 212-229 peptide came in with an IFN-γ ELISpot (SFC/10^6) of 168 SFC/10^6.

For WNV NS5 598-615 peptide, the IFN-γ ELISpot (SFC/10^6) was 252 SFC/10^6.

With WNV prM 114-130 peptide, the IFN-γ ELISpot (SFC/10^6) is 101 SFC/10^6.

In turn, WNV prM 144-161 peptide registered an IFN-γ ELISpot (SFC/10^6) of 84 SFC/10^6.

The next assay relates to HLA-DR2 (DRB1*1501) Tg mice, CD8-depleted splenocytes.
Test: not given
The format is cell-based, mouse.
As for AAQRRGRIGRNPSQV [NS3 455-469], the “T cell activation of HLA transgenic mice (SFC/10^6) IFN-γ ELISpot, DR2” value (“T cell activation of HLA transgenic mice” for short) was found to be 200 ± 27 SFC/10^6.

Turning to DISWESDAEITGSSERV [NS2b 59-75], the “T cell activation of HLA transgenic mice” value amounted to 59 ± 12 SFC/10^6.

With EIPDVLNSLAVAWMILRA [NS2a 128-145], the “T cell activation of HLA transgenic mice” value is 384 ± 125 SFC/10^6.

Consider ERKILRPRWIDARVYSDH [NS3 588-605], for which the “T cell activation of HLA transgenic mice” value was 42 ± 4 SFC/10^6.

In the case of GEFLLDLRPATAWSLYAV [NS4b 30-47], the “T cell activation of HLA transgenic mice” value amounted to 89 ± 21 SFC/10^6.

Turning to GKTRRILPQIIKEAINRR [NS3 199-216], the “T cell activation of HLA transgenic mice” value is listed as 52 ± 6 SFC/10^6.

For GLFNPMILAAGLIACDPNR [NS2a 211-229], the “T cell activation of HLA transgenic mice” value stood at 74 ± 23 SFC/10^6.

For the substance GLTSTRMFLKVRESNTTE [NS1 161-178], the “T cell activation of HLA transgenic mice” value was 134 ± 8 SFC/10^6.

For GRIGRNPSQVGDEYCY [NS3 460-475], the “T cell activation of HLA transgenic mice” value is 123 ± 4 SFC/10^6.

Turning to GWLSCLSITWTLIKNMEK [NS4b 233-250], the “T cell activation of HLA transgenic mice” value was 62 ± 6 SFC/10^6.

IDPFQLGLLVVFLATQEV [NS2a 6-23]: the “T cell activation of HLA transgenic mice” value is given as 563 ± 41 SFC/10^6.

For LAVAWMILRAITFTTTSNV [NS2a 136-154], the “T cell activation of HLA transgenic mice” value is 98 ± 22 SFC/10^6.

As for MATFKIQPVFMVASFLKA [NS2a 80-97], the “T cell activation of HLA transgenic mice” value was found to be 289 ± 83 SFC/10^6.

Consider MFAAFVISGKSTDMWIER [NS2b 39-56], for which the “T cell activation of HLA transgenic mice” value is 47 ± 18 SFC/10^6.

In the case of NRRLRTAVLAPTRVVAA [NS3 214-230], the “T cell activation of HLA transgenic mice” value worked out at 146 ± 29 SFC/10^6.

As to PAGFEPEMLRKKQITVL [NS3 176-192], the “T cell activation of HLA transgenic mice” value is listed as 59 ± 8 SFC/10^6.

Regarding REDQRGSGQVVTYALNTF [NS5 598-615], the “T cell activation of HLA transgenic mice” value is 252 ± 41 SFC/10^6.

Consider SRNSTHEMYWVSRASGNV [NS5 212-229], for which the “T cell activation of HLA transgenic mice” value came to 168 ± 13 SFC/10^6.

With STKATRYLVKTESWILR [prM 114-130], the “T cell activation of HLA transgenic mice” value is recorded as 101 ± 33 SFC/10^6.

Consider SWITQGLLGALLLWMGI [E 458-474], for which the “T cell activation of HLA transgenic mice” value came to 51 ± 4 SFC/10^6.

As to TDVLRYVILVGAAFA [NS2a 52-66], the “T cell activation of HLA transgenic mice” value is given as 516 ± 9 SFC/10^6.

On to VKVLCPYMPKVIEKMELL [NS5 181-198], for which the “T cell activation of HLA transgenic mice” value turned out to be 122 ± 40 SFC/10^6.

Turning to VYRIMTRGLLGSYQAGA [NS3 22-38], the “T cell activation of HLA transgenic mice” value is reported as 155 ± 22 SFC/10^6.
